The source of these data is paper PMC6346101.

The target in assay [1] is Influenza D virus nucleoprotein, strain D/bovine/France/2986/2012 (Influenza D virus, strain D/bovine/France/2986/2012). Nature of the assay: SEC-MALLS.
Assay [2] deals with His-tagged D/NP_(TAIL) (505-D/NP-552) (Influenza D virus, strain D/bovine/France/2986/2012). Nature of the assay: thermal shift assay (Thermofluor).
Assay [3] deals with Biotinylated D/NP_(TAIL) fused to a biotinylation motif (Influenza D virus, strain D/bovine/France/2986/2012). Nature of the assay: SPR; Biacore 3000; […]; 10 mM Hepes pH 7.4, 150 mM NaCl, 0.05% Tween 20; […]. (In general: Surface plasmon resonance follows binding to a sensor surface in real time, without labels.)
Assay [4] concerns the target Influenza D virus nucleoprotein, strain D/bovine/France/2986/2012 (Influenza D virus, strain D/bovine/France/2986/2012). Nature of the assay: negative-stain electron microscopy.

Sequence of human importin-α7 without its IBB domain (amino-acids 58 to 536), O60684 58-536 (domain or fragment; other documents disagree on this pair) (O60684 58-536): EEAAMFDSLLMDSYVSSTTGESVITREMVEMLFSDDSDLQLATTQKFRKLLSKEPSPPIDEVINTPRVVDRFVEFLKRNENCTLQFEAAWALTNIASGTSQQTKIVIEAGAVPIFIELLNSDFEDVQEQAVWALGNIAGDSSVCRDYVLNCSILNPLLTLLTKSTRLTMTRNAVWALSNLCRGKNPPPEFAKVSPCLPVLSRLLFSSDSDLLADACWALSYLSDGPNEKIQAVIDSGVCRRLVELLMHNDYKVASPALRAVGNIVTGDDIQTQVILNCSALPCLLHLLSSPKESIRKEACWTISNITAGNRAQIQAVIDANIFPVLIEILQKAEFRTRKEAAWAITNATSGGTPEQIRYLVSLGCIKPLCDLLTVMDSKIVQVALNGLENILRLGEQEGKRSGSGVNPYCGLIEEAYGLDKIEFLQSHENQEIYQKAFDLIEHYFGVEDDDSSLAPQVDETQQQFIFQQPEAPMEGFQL

What is called Kd is the constant that tells how readily two partners part at equilibrium. A lower Kd goes with higher affinity. “human importin-α7 without its IBB domain (amino-acids 58 to 536), O60684 58-536 (domain or fragment; other documents disagree on this pair)” had a stoichiometry N (importin-α7 per D/NP tetramer) in assay [1] of 4. Moreover, the rise of the melting temperature in assay [2] turned out to be 5 °C. The Kd in assay [3] came to 100 nM.
What is called stoichiometry N is the number of molecules, sites or subunits per partner or assembly. On to “Influenza D virus nucleoprotein, strain D/bovine/France/2986/2012 (from UniProt A0A0E3VZU8 1-552) (natural protein)”, for which the stoichiometry N in assay [1] and in assay [4] was 4 throughout.
